In patent publication US20080311122A1, “Antagonists of Hmgb1 and/or Rage and Methods of Use Thereof” (Medimmune, LLC, priority 2005, published 2008):
“Also recorded” adds a separate entry of the source.

T1: recombinant HMG1 binding to RAGE-Fc (Homo sapiens, UniProt P09429)
T1 construct: made in house; host or cells: E. coli (HMG1)
T1 sequence (P09429 1-215): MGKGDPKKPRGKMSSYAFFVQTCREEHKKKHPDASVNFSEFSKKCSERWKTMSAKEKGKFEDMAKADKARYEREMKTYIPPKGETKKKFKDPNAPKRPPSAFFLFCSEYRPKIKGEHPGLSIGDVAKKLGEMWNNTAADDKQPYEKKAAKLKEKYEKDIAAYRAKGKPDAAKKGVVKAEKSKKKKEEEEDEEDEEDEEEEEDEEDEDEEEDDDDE

T2: HMG1 peptides (Homo sapiens, UniProt P09429)
T2 sequence (P09429 91-169 P98L): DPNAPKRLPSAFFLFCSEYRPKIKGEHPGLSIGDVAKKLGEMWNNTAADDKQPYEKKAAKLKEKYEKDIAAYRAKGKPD

T3: recombinant HMG1 (Homo sapiens, UniProt P09429)
T3 construct: made in house; host or cells: E. coli
T3 sequence (P09429 1-215): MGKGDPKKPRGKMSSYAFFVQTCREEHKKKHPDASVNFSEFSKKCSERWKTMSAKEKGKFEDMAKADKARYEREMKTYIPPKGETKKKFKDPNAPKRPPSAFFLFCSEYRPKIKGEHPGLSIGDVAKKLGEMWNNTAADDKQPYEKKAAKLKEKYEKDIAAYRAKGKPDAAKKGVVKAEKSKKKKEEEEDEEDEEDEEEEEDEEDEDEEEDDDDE

T4: HMG1 peptides (Homo sapiens, UniProt P09429)
T4 sequence (P09429 150-183): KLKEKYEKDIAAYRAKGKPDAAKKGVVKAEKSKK


How the values were obtained:
[1] = target: T1, recombinant HMG1 binding to RAGE-Fc; assay: HMG1 binding to RAGE-Ig by ELISA; conditions: at the concentrations tested
Procedure: HMG1 binding to RAGE-Ig by ELISA: 50 μl/well of RAGE-Fc fusion protein at 5 μg/ml in PBS was added to each well of an ELISA plate and incubated overnight at 4° C. The plate was then blocked with 200 μl of 5% milk at 37° C. for 1 hr and washed 3× with PBS/Tween. 50 μl/well of diluted HMGB1 solution. For dose curves, HMGB1 concentrations started at 4 ug/ml in PBS. For antibody blocking the HMGB1 was preincubated in another plate with human anti-HMG1 antibodies or buffer, then transferred to the RAGE-coated plate. The plates were then incubated at room temperature for 2 hours and washed 3×. To detect any HMG1 bound to the immobilized RAGE-Fc a mixture of biotinylated mouse anti-HMG1 mAbs (10D4, 4H11, 3E10 and 5C12) each at 1 ug/ml, total Ab: 4 ug/ml, were added to each well and the plate was incubated for 1 hour at room temperature. The plate was then washed and Strepavidin-HPR was added to each well and incubated 15 min. The plate was then washed 3× and blotted dry. 100 μl of TMB developing agent was added and the plate read at 650 nm. Values were calculated as percent of inhibition with HMG1 alone equal to 0% inhibition. The data in FIG. 9 and summarized in Table 1 represent the average of two separate experiments.

[2] = tested on: native activated HMG1 stimulated IL-6 release from human PBMCs; assay: Inhibition of cytokine release from PBMCs, native activated HMG1; format: cell-based
Procedure: Inhibition of Cytokine Release: Human peripheral blood mononuclear cells (PBMCs) were isolated from the peripheral blood of healthy volunteers by a density gradient centrifugation. Freshly drawn heparinized whole blood was mixed with two volume of PBS. The diluted blood was gently layered on the surface of Histopaque-1077 (Sigma-Aldrich) and centrifuged at 400×g, at RT for 30 minute. PBMCs were collected from the interface between the plasma and the density gradient solution. After washing in PBS 3×, the purified PBMCs were resuspended in RPMI-1640 medium (GIBCO BRL) containing 100 U/ml penicillin, 100 μg/ml streptomycin and […] β-mercaptoethanol. 1×10^5 of cells was added in each well of 96-well cell culture plates.
The PBMCs were incubated for two hours at 37° C. with 5% CO2. recombinant HMG1, at 4 μg/ml, or native activated HMG1 from 2.4×10^5 LPS stimulated THP-1 cells, and different concentrations of human anti-HMGB-1 monoclonal antibodies, a RAGE-FC fusion protein or an HMG1 A-box-Fc fusion protein were added into each well. The culture media was supplemented with 8 U/ml (1 μg/ml) Polymyxin B sulphate (Sigma-Aldrich) to inhibit potential endotoxin. PBMCs from the same donor without stimulation with HMG1 were used as controls. The cell-free culture media were harvested after 14 hours and stored at −20° C.
The culture media were analyzed for inflammatory cytokines using Beadlyte human multi-cytokine flex kit from Upstate by Luminex 100 (Luminex Corp.). Proinflammatory cytokines TNF-α, IL-6, IL-1β and IL-12 (p40) were measured for cells stimulated with recombinant HMG1. In addition, TNF-α, IL-6, IL-1β and IL-8 were measured for cells stimulated with native activated HMG1.
Cytokine release data is presented as mean of triplicates±standard deviations. IC50 for anti-HMGB1 monoclonal antibody is defined as the concentration of antibody required yielding one-half maximal inhibition of the cytokine release from PBMCs stimulated by HMGB1. It was calculated by PRISM program.

HMG1 peptides [3] = target: T2, HMG1 peptides; assay: HMG1 B Box and peptide mapping ELISA; format: binding; conditions: B Box peptide ELISA
Procedure: (§1) HMG1 B Box and Peptide Mapping: Individual wells of a 96-well immunoplate (EIA/RIA plate, High binding, Costar) were coated with HMG1 B Box peptide amino acids 91-169 (FIG. 5A) or amino acids 150-183 (FIG. 5B) at 10 μg/ml in PBS at 4° C. overnight. The plate was then blocked with 4% milk powder dissolved in PBS at 37° C. for 1 hour. The blocking solution was removed and replaced with human anti-HMG1 antibodies at various concentrations (see FIGS. 5A-B). The plate was then washed (ELX-405 Plate washer, BIO-TEK) and secondary antibody (anti-human IgG-HRP, PIERCE) was added at a final concentration of 1:125,000 at 37° C. for 1 hour. HRP activity was detected with Sureblue HRP substrate (KPL). Plates were read at 450 nm using a Kinetic Microplate Reader (Molecular Devices). To obtain more detailed peptide mapping information, similar ELISA assays were performed using 16 biotinylated overlapping peptides spanning the HMGB1 protein from amino acid 1 to 215 as follows, maxisorp microtiter plate was coated with 2 μg/ml of NeutroAvidin (Pierce) overnight at 4° C. After washing and blocking with 1% BSA in PBS, the biotinylated peptides were individually added into the avidin coated wells and incubated for 30 min at room temperature. The serial diluted antibody G4, S16 and S6 at the initial concentration at 10 μg/ml were then transferred into the wells followed by adding mouse anti human IgG-HRP conjugate (Pierce). Detection was accomplished by adding 50 μl of tetramethylbenzidine (TMB) substrate (KPL) and the absorbance was read at […]. The peptides used were amino acids: 46-63; 61-78; 76-93; 91-108; 106-123; 136-153; 151-168; 166-183; 179-185; 181-198; and 196-215.

recombinant HMG1 = target: T3, recombinant HMG1; assay: HMG1 binding affinity via BIAcore analysis
Procedure: HMG1 Binding Affinity via BIAcore Analysis: All experiments were performed on a BIAcore 3000 instrument (BIAcore, Inc., Piscataway, N.J.). Briefly, each mAb was immobilized to a CM5 sensor chip using a standard amino coupling chemistry. Separately a reference (control) flow cell was also prepared. Two-fold, serial dilutions of HMG1 in instrument buffer were sequentially injected at a slow flow rate over the individual mAb and reference flow-cell surfaces. Following the binding and dissociation of HMG1, the mAbs surfaces were regenerated with a brief pulse of 1M NaCl-50 mM NaOH. At the end of each experiment, the binding curves were evaluated using a steady-state model available through the BIA evaluation software supplied by BIAcore, Inc. (Piscataway, N.J.).

HMG1 peptides [4] = target: T4, HMG1 peptides; assay: HMG1 B Box and peptide mapping ELISA; format: binding; conditions: B Box peptide ELISA; remark: listed apart in the source
Procedure: as §1

| Molecule | block of recombinant HMG1 binding to RAGE [1] | block of IL-6 release induced by native activated HMG1 [2] | binding to HMG1 peptide 91-169 (HMG1 peptides [3]) | Kd (recombinant HMG1) [µM] | binding to HMG1 peptide 150-183 (HMG1 peptides [4]) |
| --- | --- | --- | --- | --- | --- |
| S16: human anti-HMG1 antibody, ATCC PTA-6259; VL/VH aa SEQ ID NO: 13/15 (antibody, listed as Homo sapiens, V domains shown) VH: EVQLLESGGGLVQPGGSLRLSCAASGFTFSWYSMLWVRQAPGKGLEWVSYISPSGGFTNYADSVKGRFTISRDNSKNTLYLQMNSLRAEDTAVYYCARWDYNSGWYYDHWGQGTLVTVSS VL: AQDIQMTQSPDTLSLSPGERATLSCRASQSVNSRNLAWYQQKPGQAPRLLIYGASTRATGIPDRFSGSVSGTEFTLTISSLQPDDFATYYCQQYNSYFTFGQGTKLEIK | significant ability to block the binding of HMG1 to RAGE | able to block IL-6 released induced by native activated HMG1 | bind to HMG1 peptide 91-169 |  |  |
| G20: human anti-HMG1 antibody; VL/VH aa SEQ ID NO: 46/48 (antibody, listed as Homo sapiens, V domains shown) VH: EVQLLESGGGLVQPGGSLRLSCAASGFTFSWYDMFWVRQAPGKGLEWVSWISPSGGYTKYADSVKGRFTISRDNSKNTLYLQMNSLRAEDTAMYYCARSGLDYYDSSGYLDAFDIWGQGTMVTVSS VL: AQDIQMTQSPSSVSASVGDRVTITCRASQDVSIWLAWYQQKPGKAPKLLIFGASRLQSGVPSRFSGSRSGADFTLTIDSVQPEDFASYYCQQADSFPLTFGGGTKVEIK | do not at the concentrations tested |  |  | 0.114 |  |
| E11: human anti-HMG1 antibody, recognizes HMG1 A-Box; VL/VH aa SEQ ID NO: 24/26 (antibody, listed as Homo sapiens, V domains shown) VH: EVQLLESGGGLVQPGGSLRLSCAASGFTFSRYQMNWVRQAPGKGLEWVSSISPSGGHTHYADSVKGRFTISRDNSKNTLYLQMNSLRAEDTAVYYCAKDGRQGKISTVDHWGQGTLVTVSS VL: AQDIQMTQSPGTLSLSPGERATLSCRASQSVRSNFLAWYQQKPGQAPRLLIYGASRRASGIPDRFSGSGFGADFTLSISRLEPEDFAVYYCQQYGSSPNTFGQGSRVEIK |  | able to block IL-6 released induced by native activated HMG1 |  |  |  |
| S12: human anti-HMG1 antibody; VL/VH aa SEQ ID NO: 62/64 (antibody, listed as Homo sapiens, V domains shown) VH: EVQLLESGGGLVQPGGSLRLSCAASGFTFSKYIMHWVRQAPGKGLEWVSGIVPSGGLTEYADSVKGRFTISRDNSKNTLYLQMNSLRAEDTATYYCAKEIFGQFDYWGQGTLVTVSS VL: AQSALTQPPSVSAAPRQRVTISCSGSTSNIGNNAVTWYQYFPGKAPKLLIYSDNQRPSGVPDRFSGSKSGTSASLAITGLQAEDEADYYCQSYDRGLSVVFGGGTKLTVL | do not at the concentrations tested |  | bind to HMG1 peptide 91-169 |  | only S12 binds to HMG1 peptide 150-183 |
| S10: human anti-HMG1 antibody; VL/VH aa SEQ ID NO: 58/60 (antibody, listed as Homo sapiens, V domains shown) VH: EVQLLESGGGLVQPGGSLRLSCAASGFTFSWYDMWWVRQAPGKGLEWVSWIVPSGGITAYADSVKGRFTISRDNSKNTLYLQMNSLRAEDTATYYCARGNYGPSPFDYWGQGTLVTVSS VL: AQDIQMTQSPGTLSLSPGERATLSCRATQSVRKNFLAWYQQKPGQAPRLLIYDASSRATGIPDRFSGSGSGTDFTLTISRLEPEDFAVYYCQQYGNSPIIFGQGTRLEIK | significant ability to block the binding of HMG1 to RAGE |  | do not bind either of the HMG1 B Box peptides |  | do not bind either of the HMG1 B Box peptides |
| G9: human anti-HMG1 antibody; VL/VH aa SEQ ID NO: 34/36 (antibody, listed as Homo sapiens, V domains shown) VH: EVQLLESGGGLVQPGGSLRLSCAASGFTFSSYDMFWVRQAPGKGLEWVSRISPSGGYTYYADSVKGRFTISRDNSKNTLYLQMNSLRAEDTAVYYCARLRYFDSRGYAFDIWGQGTMVTVSS VL: AQDIQMTQSPGTLSLSPGERATLSCRASQSVRSSYLAWYQQKPGQAPRLLIYGASTRATGIPDRFSGSGSGTDFTLTISRLEPEDFAVYYCQQYGTSRWTFGQGTKVEIK | did not inhibit RAGE binding; also recorded: do not at the concentrations tested | less effective | do not bind either of the HMG1 B Box peptides |  | do not bind either of the HMG1 B Box peptides |
| G2: human anti-HMG1 IgG1 from Fab phage display library; VL/VH aa SEQ ID NO: 30/32 (antibody, listed as Homo sapiens, V domains shown) VH: EVQLLESGGGLVQPGGSLRLSCAASGFTFSWYKMQWVRQAPGKGLEWVSGISPSGGSTAYADSVKGRFTISRDNSKNTLYLQMNSLRAEDTAVYYCAKMGLFNTGNSYVDYWGQGTLVTVSS VL: AQSELTQPPSVSEAPGQRVTISCSGSTSNIGNNAVIWYQQLPGKAPKLLIYYDDLLPSGVSDRFSGSKSGTSGSLAISGLQSEDEADYYCASWDDNLNGPLFGGGTKLTVL | significant ability to block the binding of HMG1 to RAGE |  | do not bind either of the HMG1 B Box peptides | 0.101 | do not bind either of the HMG1 B Box peptides |
